According to patent US5262522A, “Receptor for oncostatin M and leukemia inhibitory factor” (Immunex Corporation, priority 1991, dated 1993):

B1: LIF-R: human leukemia inhibitory factor receptor fragment encoded by cDNA clone pHLIFR-65 (SEQ ID NO: 6), expressed on COS-7 cells (protein)
chain: QKKGAPHDLKCVTNNLQVWNCSWKAPSGTGRGTDYEVCIENRSRSCYQLEKTSIKIPALSHGDYEITINSLHDFGSSTSKFTLNEQNVSLIPDTPEILNLSADFSTSTLYLKWNDRGSVFPHRSNVIWEIKVLRKESMELVKLVTHNTTLNGKDTLHHWSWASDMPLECAIHFVEIRCYIDNLHFSGLEEWSDWSPVKNISWIPDSQTKVFPQDKVILVGSDITFCCVSQEKVLSALIGHTNCPLIHLDGENVAIKIRNISVSASSGTNVVFTTEDNIFGTVIFAGYPPDTPQQLNCETHDLKEIICSWNPGRVTALVGPRATSYTLVESFSGKYVRLKRAEAPTNESYQLLFQMLPNQEIYNFTLNAHNPLGRSQSTILVNITEKVYPHTPTSFKVKDINSTAVKLSWHLPGNFAKINFLCEIEIKKSNSVQEQRNVTIKGVENSSYLVALDKLNPYTLYTFRIRCSTETFWKWSKWSNKKQHLTTEASPSKGPDTWREWSSDGKNLIIYWKPLPINEANGKILSYNVSCSSDEETQSLSEIPDPQHKAEIRLDKNDYIISVVAKNSVGSSPPSKIASMEIPNDDLKIEQVVGMGKGILLTWHYDPNMTCDYVIKWCNSSRSEPCLMDWRKVPSNSTETVIESDEFRPGIRYNFFLYGCRNQGYQLLRSMIGYIEELAPIVAPNFTVEDTSADSILVKWEDIPVEELRGFLRGYLFYFGKGERDTSKMRVLESGRSDIKVKNITDISQKTLRIADLQGKTSYHLVLRAYTDGGVGPEKSMYVVTKENSVGLIIAILIPVAVAVIVGVVTSILCYRKREWIKETFYPDIPNPENCKALQFQKSVCEGSSALKTLEMNPCTPNNVEVLETRSAFPKIEDTEIISPVAERPEDRSDAEPENHVVVSYCPPIIEEEIPNPAADEAGGTAQVIYIDVQSMYQPQAKPEEKKKKSRSSRSKI
B2: gp130: truncated human gp130 polypeptide encoded by plasmid B10G (SEQ ID NO: 2), expressed on COS-7 cells (protein)
chain: ELLDPCGYISPESPVVQLHSNFTAVCVLKEKCMDYFHVNANYIVWKTNHFTIPKEQYTIINRTASSVTFTDIASLNIQLTCNILTFGQLEQNVYGITIISGLPPEKPKNLSCIVNEGKKMRCEWDGGRETHLETNFTLKSEWATHKFADCKAKRDTPTSCTVDYSTVYFVNIEVWVEAENALGKVTSDHINFDPVYKVKPNPPHNLSVINSEELSSILKLTWTNPSIKSVIILKYNIQYRTKDASTWSQIPPEDTASTRSSFTVQDLKPFTEYVFRIRCMKEDGKGYWSDWSEEASGITYEDRPSKAPSFWYKIDPSHTQGYRTVQLVWKTLPPFEANGKILDYEVTLTRWKSHLQNYTVNATKLTVNLTNDRYLATLTVRNLVGKSDAAVLTIPACDFQATHPVMDLKAFPKDNMLWVEWTTPRESVKKYILEWCVLSDKAPCITDWQQEDGTVHRTYLRGNLAESKCYLITVTPVYADGPGSPESIKAYLKQAPPSKGPTVRTKKVGKNEAVLEWDQLPVDVQNGFIRNYTIFYRTIIGNETAVNVDSSHTEYTLSSLTSDTLYMVRMAAYTDEGGKDGPEFTFTTPKFAQGEIEAIVVPVCLAFLLTTLLGVLFCFNKRDLIKKHIWPNVPDPSKSHIAQWSPHTPPRHNFNSKDQMYSDGNFTDVSVVEIEANDKKPFPEDL

What was measured:
Recombinant human LIF = assay: LIF binding assay (phthalate oil separation, Scatchard) on transfected COS-7 cells
Method: Recombinant human LIF is expressed in yeast and purified to homogeneity essentially as described by Hopp, et al., Bio/Technology 6:1204 (1988). The purified protein is radiolabeled using a commercially available enzymobead radioiodination reagent (BioRad). In this procedure 10 μg LIF in 50 μl 0.2M sodium phosphate, pH 7.2, are combined with 50 μl enzymobead reagent, 2 mCi of sodium iodide in 20 μl of 0.05M sodium phosphate pH 7.0 and 10 μl of 2.5% β-D-glucose. After 10 minutes at 25° C., sodium azide (20 μl of 50 mM) and sodium metabisulfite (10 μl of 5 mg/ml) are added and incubation is continued for 5 min. at 25° C. The reaction mixture is fractionated by gel filtration on a 2 ml bed volume of Sephadex® G-25 (Sigma) equilibrated in Roswell Park Memorial Institute (RPMI) 1640 medium containing 2.5% (w/v) bovine serum albumin (BSA), 0.2% (w/v) sodium azide and 20 mM Hepes pH 7.4 (binding medium). […]
The cells were separated from unbound ^125 I-LIF by centrifugation for five minutes at 15,000×g in an Eppendorf microfuge. […] The radioactivity in both parts was then determined on a gamma counter. The determinations of both cell-bound and unbound radioactivity from the two 60 μl aliquots were averaged for subsequent calculations. […]

oncostatin M = assay: Oncostatin M binding assay (phthalate oil separation, Scatchard) on transfected COS-7 cells; details: 125I-oncostatin M, compared with non-transfected COS-7 cells
Excerpt: Oncostatin M may be purified from cells in which the protein is naturally found, or from cells transformed with an expression vector encoding oncostatin M. One source of oncostatin M is phorbol ester-treated U937 cells, as described by Zarling et al., PNAS U.S.A. 83:9739 (1986). Purification of recombinant oncostatin M is described by Linsley et al., J. Biol. Chem. 264:4282-4289 (1989), which is hereby incorporated by reference in its entirety.
Oncostatin M may be radiolabeled using any suitable conventional procedure, such as the radioiodination procedure employed to radiolabel LIF in Example 1. The radio-iodination of oncostatin M has also been described by Linsley et al., supra.
The resulting radiolabeled oncostatin M may be substituted for radiolabeled LIF (using the same concentrations and other reaction parameters) in the assay procedures described in Example 1 in order to detect proteins and cells that bind oncostatin M. An assay for binding of ^125 I-oncostatin M to cells is also described in Linsley et al., supra.
COS-7 cells transfected with vector(s) encoding gp130 or LIF-R were assayed for the ability to bind oncostatin M. In separate transfections, COS-7 cells were transfected with the following combinations of vectors. […]

Row | Molecule | binding of LIF after preincubation with oncostatin M (Recombinant human LIF; cells transfected with pHLIFR-65 and CAV, preincubated with non-radiolabeled oncostatin M (curve D)) | binding of oncostatin M (oncostatin M) | binding of LIF (Recombinant human LIF; 125I-LIF, COS-7 cells, compared with non-transfected COS-7 cells)
1 | B1 | essentially unchanged | did not bind oncostatin M in any significant amount above that bound by the non-transfected COS-7 cells | 
2 | B2 |  |  | did not bind LIF in any measurable amount above the amount of binding to the non-transfected COS-7 cells
